Experimental data as given in publication PMC2120604.

B1: GST-lamin B1 tail (residues 391-588) (domain or fragment)
chain: LSPSPSSRVTVSRASSSRSVRTTRGKRKRVDVEESEASSSVSISHSASATGNVCIEEIDVDGKFIRLKNTSEQDQPMGGWEMIRKIGDTSVSYKYTSRYVLKAGQTVTVWAANAGVTASPPTDLIWKNQNSWGTGEDVKVILKNSQGEEVAQRSTVFKTTIPEEEEEEEEEPIGVAVEEERFHQQGAPRASNKSCAIM
modifications: 125I-labelled (Iodogen) where used as the radiolabelled ligand
B2: GST-lamin B2 tail (residues 382-596) (domain or fragment)
chain: LSPSPSSRITISRATSSSSSSSGVGMSVGQGRGKRRRLETEDTSGSPSRASRVSSGSRLAQQTVATGVVNIDEVDPEGRFVRLKNSSDKDQSLGNWRIKRQVLEGEDIAYKFTPKYVLRAGQTVTVWAAGAGATHSPPSTLVWKSQTNWGPGESFRTALVSADGEEVAVKAAKHSSVQGRENGEEEEEEEAEFGEEDLFHQQGDPRTTSRGCRLM
modifications: 125I-labelled (Iodogen) where used as the radiolabelled ligand

biological target: rat liver chromatin fragments (rat (endogenous in liver)); test: radioligand binding

Q: Which Kd does the source give for “GST-lamin C tail (residues 389-572) (from UniProt P02545-2 389-572) (domain or fragment)” here?
A: Its Kd is 300 nM.

Q: B1 was tested. Which Kd did it give?
A: Its Kd is 120 nM.

Q: How did the Kd turn out when B2 was run?
A: Its Kd is 230 nM.
